From patent US20180111996A1

How the values were obtained:
[1] = biological target: human PD-1 (hPD-1) receptor expressed on cells (human) (UniProt Q15116); experiment: CELISA on CHO-hPD-1 cells
[2] = biological target: hPD-1/Fc (R & D Systems) (human) (UniProt Q15116); experiment: protein ELISA, hPD-1/Fc immobilized
[3] = biological target: human PD-1 (hPD-1) receptor expressed on cells (human) (UniProt Q15116); experiment: FMAT, blockade of labeled hPD-L1/Fc binding to CHO-hPD-1 cells
[4] = biological target: human PD-1 (hPD-1) receptor expressed on cells (human) (UniProt Q15116); experiment: FMAT, blockade of labeled hPD-L2/Fc binding to CHO-hPD-1 cells
[5] = biological target: hPD-1/Fc (R & D Systems) (human) (UniProt Q15116); experiment: bio-light interferometry (ForteBio Octet), PD-1/Fc on biosensor
[6] = biological target: human PD-1 (hPD-1) receptor expressed on cells (human) (UniProt Q15116); experiment: FACS, blockade of hPD-L1/Fc binding to CHO cells expressing human PD-1
[7] = biological target: human PD-1 (hPD-1) receptor expressed on cells (human) (UniProt Q15116); experiment: as above; remark: listed apart in the source

Chain of hPD-1/Fc (R & D Systems) (human) (Q15116 25-167 limits assumed): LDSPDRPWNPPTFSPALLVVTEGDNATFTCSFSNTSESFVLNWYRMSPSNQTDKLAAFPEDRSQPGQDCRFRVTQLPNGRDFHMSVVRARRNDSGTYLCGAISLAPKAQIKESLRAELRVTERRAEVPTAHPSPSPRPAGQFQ
Chain of human PD-1 (hPD-1) receptor expressed on cells (human) (Q15116 25-288): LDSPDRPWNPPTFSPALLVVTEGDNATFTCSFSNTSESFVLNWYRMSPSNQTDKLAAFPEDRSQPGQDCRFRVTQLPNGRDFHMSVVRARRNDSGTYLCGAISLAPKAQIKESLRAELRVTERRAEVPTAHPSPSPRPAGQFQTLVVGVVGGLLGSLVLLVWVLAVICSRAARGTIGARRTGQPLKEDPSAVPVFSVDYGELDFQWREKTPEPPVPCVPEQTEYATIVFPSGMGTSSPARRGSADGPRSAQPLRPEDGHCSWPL

EC50 [1]: 0.349 nM
EC50 [2]: 0.41 nM
IC50 [3]: > 0.1 nM
IC50 [4]: 0.044 nM
Kd [5]: 1.82 nM
koff [5]: 0.00015 s⁻¹
kon [5]: 82400 M⁻¹ s⁻¹
IC50 [6]: 0.106 nM
IC50 [7]: > 100 nM
Substance: Anti-PD-1 antibody clone J116 (eBioscience #14-9989)
